# According to patent US20020081617A1, “Fluorescence and FRET based assays for biomolecules on beads” (priority 2000, published 2002):
# “And” between values parts separate entries of the source, which are not always exact repeats. Equal values may be shown once.
# Legend:
# [1] = biological target: Texas-Red labeled M1 anti-FLAG monoclonal antibody (IgG); test: competition: TR-M1 pre-equilibrated with thousand-fold excess soluble non-fluorescent FLAG peptide, then passed over bead-borne fluorescein FLAG peptide; FRET
# [2] = biological target: fluorescein biotin-bearing beads (Streptomyces avidinii, UniProt P22629); test: Detection of native biotin via fluorescence unquenching of fluorescein biotin in affinity micro-column; format: binding; conditions: 2 μL aliquot of 3 mM native biotin
# Source text: Streptavidin coated beads bearing ≈1×10^6 fluorophores/bead were packed into the micro-channel.
# (§1) Ostrich quenching is dependent on the length and structure of the ligand. […] Addition of native biotin recovers the original intensity under diffusion-limited kinetics. The extent of quenching and recovery on beads depends on site occupancy of the fluorescein biotin. […] The five-fold increase in intensity was consistent with a result from a flow cytometry measurement (data not shown). […] The magnitude of n2 relative to n1 is likely due to the disruption of the packing of beads upon initial contact with the plug of sample. It is likely that such disruption can be minimized through optimization of bead packing and sample injection procedures.
# [3] = biological target: biotinylated and fluorescein-tagged 5-FLAG peptide on streptavidin-coated beads; test: FRET quenching of 5-FLAG on beads by TR-M1 (FIG. 8)
# [4] = biological target: biotinylated and fluorescein-tagged 5-FLAG peptide on streptavidin-coated beads; test: affinity micro-column of fluorescein FLAG peptide beads, real-time FRET, kinetic model fit
# [5] = biological target: biotinylated and fluorescein-tagged 5-FLAG peptide on streptavidin-coated beads; test: FRET quenching on 5-FLAG bearing beads, flow cytometry, buffer with Ca2+, sigmoidal analysis
# [6] = biological target: biotinylated and fluorescein-tagged 5-FLAG peptide on streptavidin-coated beads; test: flow cytometry of bead-borne FLAG peptides incubated with TR-M1 mAbs, FRET quenching (FIG. 18)
# [7] = biological target: biotinylated and fluorescein-tagged 5-FLAG peptide on streptavidin-coated beads; test: FRET quenching on 5-FLAG bearing beads, flow cytometry, calcium-free buffer, sigmoidal analysis
# [8] = biological target: non-biotinylated fluorescent 5-FLAG peptide (soluble); test: FRET titration of TR-M1 into fluorescent FLAG peptide in solution, spectrofluorimetry, 1 mM Ca2+
# [9] = biological target: biotinylated and fluorescein-tagged 5-FLAG peptide on streptavidin-coated beads; test: affinity micro-column of fluorescein FLAG peptide beads, FRET endpoints, sigmoidal dose-response curve
# [10] = biological target: streptavidin coated beads (Streptomyces avidinii, UniProt P22629); test: Binding of biotinylated ligands to streptavidin-coated beads (centrifugation assays); conditions: read-out: binding affinity (Kd) to streptavidin coated beads
# Method: Binding analysis of biotinylated biomolecules to streptavidin-bearing beads were performed. Centrifugation assays using paired spectrofluorimetric and flow cytometric analysis were carried out to compare and corroborate the flow cytometric data against the traditional spectroflurometric measurements.
# The flow cytometric analysis used a Becton-Dickinson FACScan flow cytometer obtained from Sunnyvale, Calif. that interfaced to a Power PC Macintosh using the CellQuest software package. The FACScan is equipped with a 15 mW air-cooled argon ion laser. The laser output is fixed at 488 nm. It has been shown that the mean of the histogram is the quantity relevant to binding capacity. The average fluorescence of a single bead is converted to the number of fluorophores per bead on the basis of flow cytometric calibration beads obtained from Quantum 825 Flow Cytometry Standards Corporation, San Juan, PR. […] [formula]
# MCFLb mean channel fluorescence are the means of the histograms of the bound ligand Lb, corrected for nonspecific binding and standard calibration beads referred to as std, observed at similar detection settings. MESF stands for mean equivalent of soluble fluorophores and is the number of fluorescein molecules whose emission intensity is equal to MCFstd on each bead.
# The magnitude of bound sites per bead were determined from centrifugation assays.
# [11] = biological target: streptavidin on 6.2 µm streptavidin-coated beads (UniProt P22629); test: centrifugation assay with spectrofluorimetry and flow cytometry; biotinylated peptide on streptavidin-coated beads (binding through biotin)
# [12] = biological target: non-biotinylated fluorescent 5-FLAG peptide (soluble); test: centrifugation assay, spectrofluorimetry of residual supernatants; soluble fluorescent FLAG peptide on M2-bearing beads
# streptavidin = streptavidin (Streptomyces avidinii, UniProt P22629); test: Ostrich quenching of fluorescein biotin bound to streptavidin; format: binding; conditions: bound to excess soluble streptavidin
# Source text: Under certain circumstances, binding of fluorescent ligands to streptavidin is characterized by the quenching of fluorescence of bound relative to free ligands. Typically, this type of quenching referred to as “ostrich quenching” occurs when the fluorophore (e.g., fluorescein) moiety of a biotinylated ligand associates with the receptor pocket adjacent to the biotin-moiety bearing site. Such a method is described in the following reference: Buranda, T., Jones, G., Nolan, J., Keij, J., Lopez, G. P., and Sklar, L. A. (1999) Ligand Receptor Dynamics at Streptavidin Coated Particle Surfaces: A Flow Cytometric and Spectrofluorimetic Study J. Phys. Chem. B. 103, 3399-3410, the entire contents and disclosure of which is hereby incorporated by reference.
# as §1
# streptavidin coated beads, sequence (P22629 25-183): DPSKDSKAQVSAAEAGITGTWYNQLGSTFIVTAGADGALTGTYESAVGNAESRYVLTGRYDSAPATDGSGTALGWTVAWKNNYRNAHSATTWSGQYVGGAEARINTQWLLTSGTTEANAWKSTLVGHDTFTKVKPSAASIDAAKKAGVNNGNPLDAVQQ
# fluorescein biotin-bearing beads, sequence (P22629 25-183): as above
# streptavidin, sequence (P22629 25-183): as above
# streptavidin on 6.2 µm streptavidin-coated beads, sequence (P22629 37-163 limits assumed): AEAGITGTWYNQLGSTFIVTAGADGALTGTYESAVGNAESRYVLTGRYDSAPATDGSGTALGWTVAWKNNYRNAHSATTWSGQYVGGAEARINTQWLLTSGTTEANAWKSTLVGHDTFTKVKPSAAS
molecule,measurement,setting,value
dark non-fluorescent FLAG peptide (soluble),FRET signal remaining with thousand fold excess of soluble peptide,[1],< 10%
"O=C(O)CCCC[C@@H]1SC[C@@H]2NC(=O)N[C@@H]21 [native biotin, biotin]",increase in intensity of fluorescein biotin-bearing beads,[2],fivefold
Texas-Red labeled M1 anti-FLAG monoclonal antibody (IgG),quenching of peptide fluorescence at saturation,[3],> 60%
same,Kd,[4],13.3 nM
same,koff,[4],0.0012 s⁻¹
same,kon,[4],90000 M⁻¹ s⁻¹
same,Kd,[5],4 nM
same,Kd,[6],4 nM
same,Kd,[7],37 nM
same,Kd,[8],9 nM
same,Kd,[9],10 nM
Biotinylated and fluorescein-tagged FLAG peptide (epitope DYKDDDDK) tethered to streptavidin-coated beads [5-FLAG],Kd,[10],0.3 nM and ~0.3 nM
biotinylated and fluorescein-tagged 5-FLAG peptide on streptavidin-coated beads,Kd,[11],0.3 nM
biotinylated anti-FLAG M2 IgG on streptavidin-coated beads (antibody),Kd,[12],8 nM
O=C(CCCCCNC(=O)CCCC[C@@H]1SC[C@@H]2NC(=O)N[C@@H]21)NCCCCCNC(=S)Nc1ccc2c(c1)C(=O)OC21c2ccc(O)cc2Oc2cc(O)ccc21 [fluorescein biotin],Kd,[10],~0.5 nM
same,quenching of the fluorescence,streptavidin,> 90%
